Measured values: the supplement of paper PMC9112550, “Optimization of the antimicrobial peptide Bac7 by deep mutational scanning” (BMC Biology, 2022)

System: Escherichia coli TOP10
Assay: shrunken log2 fold change of peptide-encoding DNA abundance (4.5 h post-induction vs induction); higher = less antimicrobial activity (less host growth inhibition)
Details: time post-induction: 4.5 h; library: site-saturation at positions 5, 18, 19, 20
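Note: peptides expressed intracellularly from a pBAD plasmid library in pooled LB shake-flask culture, induced with 0.3% L-arabinose, DNA abundance read by NGS, three biological replicates, DESeq2 with apeglm shrinkage.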

With RRIRNRPPRLPRPRPRPKFSPRP the “shrunken log2 fold change” value was -0.0617.
For RRIRMRPPRLPRPRPRPNTAPRP, the “shrunken log2 fold change” value was 0.0661.
For RRIRLRPPRLPRPRPRPFLGPRP, the “shrunken log2 fold change” value was -0.0654.
RRIRQRPPRLPRPRPRPGQKPRP was tested, and the “shrunken log2 fold change” value was -0.00973.
In the case of RRIRWRPPRLPRPRPRPVIEPRP, the “shrunken log2 fold change” value is reported as 0.0398.
RRIRLRPPRLPRPRPRPIFIPRP was tested, and the “shrunken log2 fold change” value was 0.606.
In the case of RRIRDRPPRLPRPRPRPKWGPRP, the “shrunken log2 fold change” value is reported as 0.105.
In the case of RRIRVRPPRLPRPRPRPNMSPRP, the “shrunken log2 fold change” value is reported as -0.537.
With RRIRSRPPRLPRPRPRPLPKPRP the “shrunken log2 fold change” value was 0.493.
RRIRFRPPRLPRPRPRPILLPRP was tested, and the “shrunken log2 fold change” value was -0.554.
In the case of RRIRRRPPRLPRPRPRPMYQPRP, the “shrunken log2 fold change” value is reported as -0.058.
RRIRQRPPRLPRPRPRPVVNPRP was tested, and the “shrunken log2 fold change” value was -0.126.
With RRIRLRPPRLPRPRPRPEHGPRP the “shrunken log2 fold change” value was 0.00489.
In the case of RRIRMRPPRLPRPRPRPRTKPRP, the “shrunken log2 fold change” value is reported as 1.21.
For RRIRIRPPRLPRPRPRPGRQPRP, the “shrunken log2 fold change” value was 0.172.
RRIRTRPPRLPRPRPRPMGYPRP was tested, and the “shrunken log2 fold change” value was 0.0627.
For RRIRWRPPRLPRPRPRPWMHPRP, the “shrunken log2 fold change” value was -0.0548.
RRIRARPPRLPRPRPRPWTWPRP was tested, and the “shrunken log2 fold change” value was -0.327.
In the case of RRIRGRPPRLPRPRPRPRCPPRP, the “shrunken log2 fold change” value is reported as 1.4.
RRIRTRPPRLPRPRPRPFNLPRP was tested, and the “shrunken log2 fold change” value was -0.336.
For RRIRIRPPRLPRPRPRPEQVPRP, the “shrunken log2 fold change” value was 0.0205.
In the case of RRIRIRPPRLPRPRPRPEQGPRP, the “shrunken log2 fold change” value is reported as 0.0755.
For RRIRYRPPRLPRPRPRPVMKPRP, the “shrunken log2 fold change” value was -0.131.
In the case of RRIRPRPPRLPRPRPRPHGSPRP, the “shrunken log2 fold change” value is reported as 0.063.
For RRIRERPPRLPRPRPRPEQKPRP, the “shrunken log2 fold change” value was -0.017.
For RRIRYRPPRLPRPRPRPGWIPRP, the “shrunken log2 fold change” value was -0.328.
RRIRDRPPRLPRPRPRPQQKPRP was tested, and the “shrunken log2 fold change” value was -0.14.
For RRIRERPPRLPRPRPRPVRDPRP, the “shrunken log2 fold change” value was 0.337.
In the case of RRIRHRPPRLPRPRPRPEVRPRP, the “shrunken log2 fold change” value is reported as -0.00149.
With RRIRQRPPRLPRPRPRPIEYPRP the “shrunken log2 fold change” value was -0.0135.
RRIRFRPPRLPRPRPRPNRKPRP was tested, and the “shrunken log2 fold change” value was -0.173.
With RRIRDRPPRLPRPRPRPHATPRP the “shrunken log2 fold change” value was 0.985.
RRIRDRPPRLPRPRPRPCFRPRP was tested, and the “shrunken log2 fold change” value was -0.157.
For RRIRYRPPRLPRPRPRPTLNPRP, the “shrunken log2 fold change” value was -0.54.
With RRIRRRPPRLPRPRPRPKCLPRP the “shrunken log2 fold change” value was 0.144.
In the case of RRIRLRPPRLPRPRPRPAIEPRP, the “shrunken log2 fold change” value is reported as 0.0744.
In the case of RRIRVRPPRLPRPRPRPKINPRP, the “shrunken log2 fold change” value is reported as -0.18.
For RRIRFRPPRLPRPRPRPDDHPRP, the “shrunken log2 fold change” value was -0.139.
In the case of RRIRNRPPRLPRPRPRPWLDPRP, the “shrunken log2 fold change” value is reported as -0.029.
For RRIRFRPPRLPRPRPRPNTKPRP, the “shrunken log2 fold change” value was -0.323.
With RRIRIRPPRLPRPRPRPEFYPRP the “shrunken log2 fold change” value was -0.333.
With RRIRNRPPRLPRPRPRPIVFPRP the “shrunken log2 fold change” value was -0.207.
In the case of RRIRTRPPRLPRPRPRPESNPRP, the “shrunken log2 fold change” value is reported as -0.178.
With RRIRMRPPRLPRPRPRPQHHPRP the “shrunken log2 fold change” value was -0.0825.
With RRIRARPPRLPRPRPRPCNAPRP the “shrunken log2 fold change” value was 0.0237.
With RRIRRRPPRLPRPRPRPSGNPRP the “shrunken log2 fold change” value was 0.122.
RRIRVRPPRLPRPRPRPPIRPRP was tested, and the “shrunken log2 fold change” value was -0.0403.
RRIRFRPPRLPRPRPRPSIKPRP was tested, and the “shrunken log2 fold change” value was -0.42.
For RRIRFRPPRLPRPRPRPHLYPRP, the “shrunken log2 fold change” value was -0.355.
For RRIRQRPPRLPRPRPRPIHAPRP, the “shrunken log2 fold change” value was -0.0062.
With RRIRDRPPRLPRPRPRPATQPRP the “shrunken log2 fold change” value was 0.52.
With RRIRDRPPRLPRPRPRPNPWPRP the “shrunken log2 fold change” value was 0.111.
In the case of RRIRSRPPRLPRPRPRPMHDPRP, the “shrunken log2 fold change” value is reported as -0.314.
In the case of RRIRPRPPRLPRPRPRPPNDPRP, the “shrunken log2 fold change” value is reported as 0.111.
RRIRNRPPRLPRPRPRPNFMPRP was tested, and the “shrunken log2 fold change” value was -0.269.
In the case of RRIRGRPPRLPRPRPRPRCSPRP, the “shrunken log2 fold change” value is reported as 0.415.
With RRIRSRPPRLPRPRPRPDDLPRP the “shrunken log2 fold change” value was 0.0166.
For RRIRSRPPRLPRPRPRPPWCPRP, the “shrunken log2 fold change” value was 0.309.
In the case of RRIRSRPPRLPRPRPRPPANPRP, the “shrunken log2 fold change” value is reported as 0.283.
With RRIRFRPPRLPRPRPRPKICPRP the “shrunken log2 fold change” value was -0.0416.
For RRIRGRPPRLPRPRPRPASQPRP, the “shrunken log2 fold change” value was 0.76.
In the case of RRIRGRPPRLPRPRPRPNLPPRP, the “shrunken log2 fold change” value is reported as 0.133.
In the case of RRIRARPPRLPRPRPRPFRYPRP, the “shrunken log2 fold change” value is reported as -0.283.
In the case of RRIRMRPPRLPRPRPRPVELPRP, the “shrunken log2 fold change” value is reported as -0.281.
In the case of RRIRHRPPRLPRPRPRPEKDPRP, the “shrunken log2 fold change” value is reported as -0.0422.
For RRIRGRPPRLPRPRPRPPRRPRP, the “shrunken log2 fold change” value was 1.28.
RRIRNRPPRLPRPRPRPNEQPRP was tested, and the “shrunken log2 fold change” value was -0.0324.
In the case of RRIRTRPPRLPRPRPRPNMRPRP, the “shrunken log2 fold change” value is reported as 0.33.
In the case of RRIRHRPPRLPRPRPRPNLCPRP, the “shrunken log2 fold change” value is reported as 0.0613.
With RRIRYRPPRLPRPRPRPTTWPRP the “shrunken log2 fold change” value was -0.358.
For RRIRIRPPRLPRPRPRPYCQPRP, the “shrunken log2 fold change” value was -1.1.
In the case of RRIRERPPRLPRPRPRPPDPPRP, the “shrunken log2 fold change” value is reported as 0.106.
In the case of RRIRERPPRLPRPRPRPFACPRP, the “shrunken log2 fold change” value is reported as -0.433.
With RRIRNRPPRLPRPRPRPKWDPRP the “shrunken log2 fold change” value was 0.0992.
With RRIRKRPPRLPRPRPRPYICPRP the “shrunken log2 fold change” value was 0.0572.
With RRIRQRPPRLPRPRPRPCWHPRP the “shrunken log2 fold change” value was -0.129.
In the case of RRIRFRPPRLPRPRPRPNPCPRP, the “shrunken log2 fold change” value is reported as -0.349.
For RRIRRRPPRLPRPRPRPAPNPRP, the “shrunken log2 fold change” value was 0.976.
In the case of RRIRSRPPRLPRPRPRPIQGPRP, the “shrunken log2 fold change” value is reported as -0.127.
For RRIRARPPRLPRPRPRPQLSPRP, the “shrunken log2 fold change” value was 0.329.
RRIRQRPPRLPRPRPRPIEMPRP was tested, and the “shrunken log2 fold change” value was -0.0847.
In the case of RRIRVRPPRLPRPRPRPQDWPRP, the “shrunken log2 fold change” value is reported as -0.132.
With RRIRVRPPRLPRPRPRPAMRPRP the “shrunken log2 fold change” value was 0.6.
RRIRIRPPRLPRPRPRPIEYPRP was tested, and the “shrunken log2 fold change” value was -0.0602.
With RRIRERPPRLPRPRPRPPCQPRP the “shrunken log2 fold change” value was 0.0382.
In the case of RRIRQRPPRLPRPRPRPHVYPRP, the “shrunken log2 fold change” value is reported as -0.414.
For RRIRCRPPRLPRPRPRPEWVPRP, the “shrunken log2 fold change” value was 0.293.
RRIRIRPPRLPRPRPRPAKVPRP was tested, and the “shrunken log2 fold change” value was -0.224.
With RRIRHRPPRLPRPRPRPECYPRP the “shrunken log2 fold change” value was -0.0176.
For RRIRMRPPRLPRPRPRPMGWPRP, the “shrunken log2 fold change” value was 0.808.
With RRIRKRPPRLPRPRPRPASSPRP the “shrunken log2 fold change” value was 0.0469.
With RRIRIRPPRLPRPRPRPRKDPRP the “shrunken log2 fold change” value was -0.387.
RRIRKRPPRLPRPRPRPSGLPRP was tested, and the “shrunken log2 fold change” value was -0.0301.
For RRIRNRPPRLPRPRPRPGPYPRP, the “shrunken log2 fold change” value was -0.00784.
In the case of RRIRIRPPRLPRPRPRPVRVPRP, the “shrunken log2 fold change” value is reported as 0.458.
In the case of RRIRWRPPRLPRPRPRPKKYPRP, the “shrunken log2 fold change” value is reported as -0.245.
For RRIRGRPPRLPRPRPRPINRPRP, the “shrunken log2 fold change” value was -0.231.
With RRIRPRPPRLPRPRPRPTGEPRP the “shrunken log2 fold change” value was 0.396.
With RRIRIRPPRLPRPRPRPNTHPRP the “shrunken log2 fold change” value was -0.677.
In the case of RRIRWRPPRLPRPRPRPHPQPRP, the “shrunken log2 fold change” value is reported as 0.309.
For RRIRVRPPRLPRPRPRPNGMPRP, the “shrunken log2 fold change” value was -0.32.
With RRIRQRPPRLPRPRPRPPGIPRP the “shrunken log2 fold change” value was -0.0579.
For RRIRFRPPRLPRPRPRPNSFPRP, the “shrunken log2 fold change” value was -0.894.
With RRIRQRPPRLPRPRPRPSWGPRP the “shrunken log2 fold change” value was -0.0627.
With RRIRWRPPRLPRPRPRPVRLPRP the “shrunken log2 fold change” value was 0.428.
For RRIRGRPPRLPRPRPRPRGFPRP, the “shrunken log2 fold change” value was 0.817.
With RRIRPRPPRLPRPRPRPMFRPRP the “shrunken log2 fold change” value was -0.119.
With RRIRKRPPRLPRPRPRPLIPPRP the “shrunken log2 fold change” value was -0.000217.
RRIRVRPPRLPRPRPRPGRVPRP was tested, and the “shrunken log2 fold change” value was 0.405.
For RRIRLRPPRLPRPRPRPHCWPRP, the “shrunken log2 fold change” value was 0.109.
RRIRKRPPRLPRPRPRPIGFPRP was tested, and the “shrunken log2 fold change” value was -0.00176.
RRIRLRPPRLPRPRPRPQNWPRP was tested, and the “shrunken log2 fold change” value was 0.1.
For RRIRIRPPRLPRPRPRPYGMPRP, the “shrunken log2 fold change” value was -0.354.
In the case of RRIRKRPPRLPRPRPRPFWFPRP, the “shrunken log2 fold change” value is reported as 0.247.
For RRIRPRPPRLPRPRPRPVTLPRP, the “shrunken log2 fold change” value was 0.527.
RRIRVRPPRLPRPRPRPPDNPRP was tested, and the “shrunken log2 fold change” value was -0.00642.
For RRIRSRPPRLPRPRPRPTCSPRP, the “shrunken log2 fold change” value was 0.0811.
RRIRDRPPRLPRPRPRPRWEPRP was tested, and the “shrunken log2 fold change” value was -0.0171.
For RRIRIRPPRLPRPRPRPGYRPRP, the “shrunken log2 fold change” value was -0.217.
For RRIRTRPPRLPRPRPRPPCFPRP, the “shrunken log2 fold change” value was 0.153.
For RRIRTRPPRLPRPRPRPREWPRP, the “shrunken log2 fold change” value was 0.259.
With RRIRMRPPRLPRPRPRPCPKPRP the “shrunken log2 fold change” value was -0.214.
In the case of RRIRHRPPRLPRPRPRPFVTPRP, the “shrunken log2 fold change” value is reported as -0.188.
For RRIRHRPPRLPRPRPRPECLPRP, the “shrunken log2 fold change” value was -0.00297.
RRIRSRPPRLPRPRPRPFLLPRP was tested, and the “shrunken log2 fold change” value was -0.411.
